Values of other authors in publication PMC3417354.

Biological target: PCNA (Homo sapiens) (UniProt P12004)
Sequence (P12004 whole entry): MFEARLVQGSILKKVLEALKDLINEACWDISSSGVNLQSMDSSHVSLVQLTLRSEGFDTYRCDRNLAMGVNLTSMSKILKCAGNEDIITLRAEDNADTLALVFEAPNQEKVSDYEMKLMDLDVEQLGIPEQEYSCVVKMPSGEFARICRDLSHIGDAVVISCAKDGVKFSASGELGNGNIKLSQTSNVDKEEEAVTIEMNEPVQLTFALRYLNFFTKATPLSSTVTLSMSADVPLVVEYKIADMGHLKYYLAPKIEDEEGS

Sequence of p21 peptide 141-160 (P38936 141-160): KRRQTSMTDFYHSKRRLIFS

For “p21 peptide 141-160 (from UniProt P38936)”, the Kd is given as 88 nM.
